# Numbering of substitutions follows the chain as printed.
# T1: human KLK5 (human, UniProt Q9Y337 67-293)
# T1 sequence: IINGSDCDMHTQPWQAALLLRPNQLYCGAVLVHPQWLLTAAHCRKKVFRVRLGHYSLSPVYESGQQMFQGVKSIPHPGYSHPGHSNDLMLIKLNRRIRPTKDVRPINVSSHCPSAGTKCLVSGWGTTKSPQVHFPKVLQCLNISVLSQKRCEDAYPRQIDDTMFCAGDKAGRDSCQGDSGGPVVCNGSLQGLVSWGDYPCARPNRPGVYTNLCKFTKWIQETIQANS
# T2: human KLK14 (human, UniProt Q9P0G3 25-251)
# T2 sequence: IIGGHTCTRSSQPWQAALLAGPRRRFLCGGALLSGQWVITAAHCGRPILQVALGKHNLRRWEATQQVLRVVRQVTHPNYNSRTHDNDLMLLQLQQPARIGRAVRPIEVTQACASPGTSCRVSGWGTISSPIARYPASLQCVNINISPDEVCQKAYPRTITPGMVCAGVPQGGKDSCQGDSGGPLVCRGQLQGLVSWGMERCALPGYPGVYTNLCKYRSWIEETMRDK
# T3: mouse KLK5 (mouse)
# T3 chain: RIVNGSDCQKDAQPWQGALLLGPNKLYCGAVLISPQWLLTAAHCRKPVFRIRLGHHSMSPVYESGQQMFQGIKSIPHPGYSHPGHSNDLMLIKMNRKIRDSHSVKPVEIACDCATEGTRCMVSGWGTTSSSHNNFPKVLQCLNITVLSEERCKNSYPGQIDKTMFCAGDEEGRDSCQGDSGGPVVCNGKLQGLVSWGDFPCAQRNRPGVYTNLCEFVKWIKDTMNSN
# T4: mouse KLK14 (mouse, UniProt Q8CGR5 24-250)
# T4 sequence: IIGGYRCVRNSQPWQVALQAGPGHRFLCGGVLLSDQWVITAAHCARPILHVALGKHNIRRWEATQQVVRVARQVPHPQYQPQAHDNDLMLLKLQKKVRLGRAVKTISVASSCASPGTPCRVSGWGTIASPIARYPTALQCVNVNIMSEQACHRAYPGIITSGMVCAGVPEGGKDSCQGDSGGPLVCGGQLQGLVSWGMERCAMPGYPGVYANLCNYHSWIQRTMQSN
# T5: KLK12 (human, UniProt Q9UKR0)
# T5 construct: commercial enzyme (R&D Systems, 3095-SE); 0.1 µg/mL in the assay; substrate Boc-Val-Pro-Arg-AMC 100 µM; also called Human KLK12; hKLK12
# T5 sequence (protease, looked up): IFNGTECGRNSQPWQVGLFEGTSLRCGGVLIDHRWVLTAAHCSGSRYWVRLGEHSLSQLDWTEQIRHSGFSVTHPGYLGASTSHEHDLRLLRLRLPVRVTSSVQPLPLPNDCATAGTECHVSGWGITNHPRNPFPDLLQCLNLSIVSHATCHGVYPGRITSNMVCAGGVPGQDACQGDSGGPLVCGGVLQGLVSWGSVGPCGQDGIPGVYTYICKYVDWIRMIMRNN
# B1: KLK5 inhibitory peptide K50098 (peptide)
# chain: GPQFGLFSKYRTPNCTSQTLGSCSREYDPVCGSDMSTYANECTLCMKIREGGHNIKIIRNGPCGG
# notes: SPINK2 mutant peptide made in E. coli
# B2: KLK5 inhibitory peptide K50016 (peptide)
# chain: B1 chain with T16S, S17Q, Q18W, T19Q, L20Y, G21S, S24D, E26V
# notes: as for B1
# B3: KLK5 inhibitory peptide K50032 (peptide)
# chain: B1 chain with T16L, S17N, Q18W, L20D, G21H, S22Q, S24E, E26D
# notes: as for B1
# B4: KLK5/KLK7 inhibitory peptide K51028 (peptide)
# chain: GPQFGLFSKYRTPNCYQYRSKGCTHEYDPVCGSDMSTYANECTLCMKIREGGHNIKIIRNGPCGG
# notes: as for B1
# B5: KLK5 inhibitory peptide K50055 (peptide)
# chain: B1 chain with T16A, S17N, Q18T, T19M, L20K, G21Q, S22D, S24T
# notes: as for B1
# B6: KLK5/KLK7 inhibitory peptide K50031 (peptide)
# chain: B4 chain with Y16G, Q17E, R19K, S20G, K21R, T24Y, H25Y, E26H
# notes: as for B1
# B7: KLK5/KLK7 inhibitory peptide K51005 (peptide)
# chain: B4 chain with Y16M, Y18H, R19A, S20R, K21Q, T24H, H25Y, E26D
# notes: as for B1
# B8: KLK5 inhibitory peptide K51090 (peptide)
# chain: GPQFGLFSKYRTPNCDEIGKYGCGRSYDPVCGSDMSTYANECTLCMKIREGGHNIKIIRNGPCGG
# notes: as for B1
# B9: KLK5 inhibitory peptide K51072 (peptide)
# chain: GPQFGLFSKYRTPNCQEDMTEYCARDFDPVCGSDMSTYANECTLCMKIREGGHNIKIIRNGPCGG
# notes: as for B1
# Target: T1, human KLK5
# Experiment: cell-based or functional assay
row,IC50(nM) for hKLK5 [nM],Binder
1,8.3,B1
2,6.9,B2
3,7.1,B3
4,6.1,B4
5,6.7,B5
6,5.4,B6
7,5.8,B7
8,4.5,B8
9,7,B9

# Target: human KLK7 (human, UniProt P49862 30-253)
# Sequence (P49862 30-253): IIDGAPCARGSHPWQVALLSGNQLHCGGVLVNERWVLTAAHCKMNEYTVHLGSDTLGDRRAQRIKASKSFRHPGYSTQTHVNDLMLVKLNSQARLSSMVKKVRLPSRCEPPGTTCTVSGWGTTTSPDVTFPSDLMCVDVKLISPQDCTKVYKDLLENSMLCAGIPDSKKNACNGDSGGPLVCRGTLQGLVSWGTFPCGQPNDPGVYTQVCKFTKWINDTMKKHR
# Experiment: cell-based or functional assay
row,IC50(nM) for hKLK7 [nM],Binder
1,249,B4
2,13,B6
3,17,B7
4,> 1000,B8

# Target: T2, human KLK14
# Experiment: cell-based or functional assay
row,IC50(nM) for hKLK14 [nM],Binder
1,268,B1
2,> 1000,B5
3,> 1000,B6
4,> 1000,B8
5,434,B9

# Target: T3, mouse KLK5
# Experiment: cell-based or functional assay
row,IC50(nM) for mKLK5 [nM],Binder
1,14,B1
2,15,B2
3,127,B3
4,< 0.5,B4
5,< 0.5,B5
6,40,B6
7,48,B7
8,2,B8
9,2,B9

# Target: mouse KLK7 (mouse, UniProt Q91VE3 26-249)
# Sequence (Q91VE3 26-249): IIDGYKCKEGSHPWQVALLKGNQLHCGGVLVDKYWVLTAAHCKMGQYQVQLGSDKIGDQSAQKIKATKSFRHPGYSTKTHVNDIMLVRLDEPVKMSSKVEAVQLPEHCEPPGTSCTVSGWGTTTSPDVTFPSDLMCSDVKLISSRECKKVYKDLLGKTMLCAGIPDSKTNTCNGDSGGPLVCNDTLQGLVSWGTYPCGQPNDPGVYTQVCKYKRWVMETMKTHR
# Experiment: cell-based or functional assay
row,IC50(nM) for mKLK7 [nM],Binder
1,> 1000,B1
2,> 1000,B2
3,> 1000,B3
4,77,B4
5,> 1000,B5
6,4,B6
7,23,B7
8,658,B8
9,512,B9

# Target: T4, mouse KLK14
# Experiment: cell-based or functional assay
row,IC50(nM) for mKLK14 [nM],Binder
1,547,B1
2,> 1000,B2
3,> 1000,B3
4,> 1000,B4
5,> 1000,B5
6,244,B6
7,214,B7
8,> 1000,B8
9,> 1000,B9

# Target: bChymotrypsin
# Experiment: fluorogenic peptide substrate cleavage, 1 µM inhibitor
# Description: FIG. 3A includes graphs to evaluate the cross-reactivity of each inhibitory peptide with proteases, using the degradation of a peptide substrate as an index. For evaluating the Bovine trypsin inhibitory activity, trypsin (Pierce, 20233) with a final concentration of 5 nM and a substrate peptide Boc-Val-Pro-Arg-AMC (R&D Systems, Inc., ES011) with a final concentration of 100 μM were used. For evaluating the Human trypsin inhibitory activity, trypsin (Sigma-Aldrich Co. LLC, T6424) with a final concentration of 1 nM and a substrate peptide Boc-Val-Pro-Arg-AMC (R&D Systems, Inc., ES011) with a final concentration of 100 μM were used. For evaluating the Bovine α-chymotrypsin inhibitory activity, chymotrypsin (Worthington Biochemical Corporation, LS001434) with a final concentration of 10 nM and a substrate peptide Suc-Leu-Leu-Val-Tyr-MCA (PEPTIDE […], INC., 3120-v) with a final concentration of 100 μM were used.
# (§1) The specificities for other proteases were evaluated using the degradation of a substrate peptide as an index. As in the method described in (3-1), 25 μL each of a protease and a sample diluted with an assay buffer were mixed (to a final concentration of sample of 1 μM), followed by a reaction at 37° C. for 20 minutes. Thereafter, 50 μL of a substrate diluted with an assay buffer was added thereto, and the fluorescence signal was measured using Enspire (PerkinElmer). An assay buffer (50 mM Tris, 150 mM NaCl, pH 8.0) was used for the evaluation of the protease activity, and a PROTEOSAVE® SS96F black plate (Sumitomo Bakelite Co., Ltd.) was used for the reaction and the measurement. The combinations of the protease and the substrate used for the evaluation of the specificity were as follows.
row,binding result,Binder
1,binds,B6
2,binds,B7

# Target: T6, KLK4 (human, UniProt Q9Y5K2)
# T6 construct: commercial enzyme (R&D Systems, 1719-SE); 1 µg/mL in the assay; substrate Boc-Val-Pro-Arg-AMC 100 µM; also called Human KLK4; hKLK4
# T6 sequence (Q9Y5K2 31-254 limits assumed): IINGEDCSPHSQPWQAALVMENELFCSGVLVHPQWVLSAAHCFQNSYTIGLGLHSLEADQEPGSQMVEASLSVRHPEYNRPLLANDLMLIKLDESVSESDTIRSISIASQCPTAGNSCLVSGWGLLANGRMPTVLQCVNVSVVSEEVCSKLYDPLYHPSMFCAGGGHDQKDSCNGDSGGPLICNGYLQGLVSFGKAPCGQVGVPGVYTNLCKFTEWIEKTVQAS
# Experiment: as above
# Description: FIG. 3F includes graphs to evaluate the cross-reactivity of each inhibitory peptide with proteases, using the degradation of a peptide substrate as an index. For evaluating the Human KLK1 inhibitory activity, hKLK1 (R&D Systems, Inc., 2337-SE) with a final concentration of 0.1 μg/mL and a substrate peptide Pro-Phe-Arg-MCA (PEPTIDE […], INC., 3096-v) with a final concentration of 100 μM were used. For evaluating the Human KLK2 inhibitory activity, hKLK2 (R&D Systems, Inc., 4104-SE) with a final concentration of 2 μg/mL and a substrate peptide Pro-Phe-Arg-MCA (PEPTIDE […], INC., 3096-v) with a final concentration of 100 μM were used. For evaluating the Human KLK4 inhibitory activity, hKLK4 (R&D Systems, Inc., 1719-SE) with a final concentration of 1 μg/mL and a substrate peptide Boc-Val-Pro-Arg-AMC (R&D Systems, Inc., ES011) with a final concentration of 100 μM were used.
# as §1
row,binding result,Binder
1,binds,B1
2,binds,B2
3,binds,B5
4,binds,B7
5,binds,B8
6,binds,B9

# Target: T5, KLK12
# Experiment: as above
# Description: FIG. 3G includes graphs to evaluate the cross-reactivity of each inhibitory peptide with proteases, using the degradation of a peptide substrate as an index. For evaluating the Human KLK7 inhibitory activity, hKLK7 with a final concentration of 1 μg/mL and a substrate peptide Mca-Arg-Pro-Lys-Pro-Val-Glu-Nval-Trp-Arg-Lys (Dnp)-NH₂ (R&D Systems, Inc., ES002) with a final concentration of 20 μM were used. For evaluating the Human KLK8 inhibitory activity, hKLK8 (UniProt: 060259, prepared by the inventors) with a final concentration of 5 nM and a substrate peptide Boc-Val-Pro-Arg-AMC (R&D Systems, Inc., ES011) with a final concentration of 100 μM were used. For evaluating the Human KLK12 inhibitory activity, hKLK12 (R&D Systems, Inc., 3095-SE) with a final concentration of 0.1 μg/mL and a substrate peptide Boc-Val-Pro-Arg-AMC (R&D Systems, Inc., ES011) with a final concentration of 100 μM were used.
# as §1
row,binding result,Binder
1,binds,B1
2,binds,B3
3,binds,B5
4,binds,B9

# Target: T1, human KLK5
# Experiment: SPR, BIAcore T200; biotinylated KLK5 captured on chip, peptide as analyte; single cycle kinetics, 1:1 model
# Description: In order to measure the binding affinity of the KLK5 inhibitory peptides, surface plasmon resonance analysis was conducted using BIAcore T 200 (GE healthcare). A complementary strand of DNA of a streptavidin conjugate was captured by hybridization on Sensor Chip CAP (GE healthcare) on which single-stranded DNA immobilized. Next, KLK5 biotinylated using EZ-Link NHS-PEG4-Biotin (Thermo Fisher Scientific) was captured at a flow rate of 10 μL/min to immobilize about 10 RU. Thereafter, the KLK5 inhibitory peptide, serially diluted 2-fold with HBS-EP (0.625 to 10 nM), was added thereto as an analyte at a flow rate of 30 μL/min. In the BIAcore T 200 Evaluation software (version 2.0), kon and koff were calculated by analysis using Single cycle kinetics in a simple one-to-one Langmuir binding model. The dissociation constant KD was calculated as a ratio of koff/kₒₙ. Further, multiple KLK5 inhibitory peptides were measured by regenerating Sensor Chip CAP using a Regeneration buffer attached to a Biotin CAPture Kit (GE healthcare) and repeatedly capturing biotinylated KLK5.
Kd [nM],koff [s⁻¹],kon [M⁻¹ s⁻¹],Binder
0.018,1.8e-05,1e+06,B1
0.042,0.00029,7e+06,B2
0.13,0.00027,2e+06,B3
0.014,2e-05,1.5e+06,B4
0.019,1.8e-05,980000,B5
0.061,5e-05,820000,B6
0.34,0.0012,3.5e+06,B7
0.027,5.7e-05,2.1e+06,B8
0.026,2.2e-05,840000,B9
